Laboratory results published in US11672873 (dated 2023).

T1: soluble B7H4
T1 chain: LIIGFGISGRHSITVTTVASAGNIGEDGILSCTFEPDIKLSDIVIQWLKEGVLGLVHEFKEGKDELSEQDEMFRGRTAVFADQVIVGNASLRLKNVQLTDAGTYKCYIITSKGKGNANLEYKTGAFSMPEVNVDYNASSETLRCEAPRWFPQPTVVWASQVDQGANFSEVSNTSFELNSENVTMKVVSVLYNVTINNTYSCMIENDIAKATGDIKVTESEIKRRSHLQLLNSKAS


Columns and labels:
soluble B7H4 [1] = biological target: T1, soluble B7H4; experiment: SPR; experiment #2, 25 nM B7-H4
soluble B7H4 [2] = biological target: T1, soluble B7H4; experiment: SPR; experiment #1, 20 nM B7-H4

Kd (soluble B7H4 [1]) [pM]	Kd (soluble B7H4 [2]) [pM]	Binder
119	79	anti-B7-H4 antibody 817 (antibody, V domains shown) VH: EVQLVESGGGLVQPGGSLRLSCAASGFTFSSYAMHWVRQAPGKGLEWVSAISGSGGSTRYADSVKGRFTISRDNSKNTLYLQMNSLRAEDTAVYYCARGRWSKWGFDVWGQGTLVTVSS VL: not shown
383	175	anti-B7-H4 antibody 801 (antibody, V domains shown) VH: EVQLVESGGGLVQPGGSLRLSCAASGFTFNSYAMHWVRQAPGKGLEWVSAISGNGGSTRYADSVKGRFTISRDNSKNTLYLQMNSLRAEDTAVYYCARDRFRKVHGFDVWGQGTLVTVSS VL: DIQMTQSPSSLSASVGDRVTITCQASQDISNYLNWYQQKPGKAPKLLIYDASNLETGVPSRFSGSGSGTDFTFTISSLQPEDIATYYCQQDATFPLTFGQGTKVEIK
